Values of other authors as cited in paper PMC11076503.

Target: Mpro (Severe acute respiratory syndrome coronavirus 2) (UniProt P0DTD1)

## Mpro (from UniProt P0DTD1)
  Kd: 7 µM
